Results as given in patent US20210230570.

Tests used:
[1] = target: plasma purified human AT-III (Molecular Innovations)
[2] = target: antithrombin III (plasma purified human AT-III), in complex with unfractionated heparin
[3] = target: plasma purified human antithrombin III (AT-III) in complex with unfractionated heparin (AT-III/UFH)

Chain of Factor X (FX), P00742 (P00742 whole entry, looked up): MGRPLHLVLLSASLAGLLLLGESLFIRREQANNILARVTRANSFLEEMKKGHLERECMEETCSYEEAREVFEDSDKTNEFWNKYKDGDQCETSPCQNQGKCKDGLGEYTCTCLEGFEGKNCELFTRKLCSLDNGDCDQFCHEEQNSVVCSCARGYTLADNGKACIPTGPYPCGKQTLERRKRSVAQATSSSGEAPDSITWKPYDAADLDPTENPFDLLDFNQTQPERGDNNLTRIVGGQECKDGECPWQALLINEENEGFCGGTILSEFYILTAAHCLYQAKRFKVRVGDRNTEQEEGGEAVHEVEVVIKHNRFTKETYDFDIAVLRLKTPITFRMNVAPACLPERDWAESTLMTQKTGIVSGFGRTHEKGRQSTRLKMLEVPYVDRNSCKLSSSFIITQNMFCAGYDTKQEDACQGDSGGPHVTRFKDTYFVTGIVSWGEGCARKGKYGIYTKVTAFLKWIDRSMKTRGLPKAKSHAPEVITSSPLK
Chain of Factor X, P00742 (P00742 whole entry, looked up): as above

B1: FIXa-K293A/R338A/R403A (protein)
chain 1: YNSGKLEEFVQGNLERECMEEKCSFEEAREVFENTERTTEFWKQYVDGDQCESNPCLNGGSCKDDINSYECWCPFGFEGKNCELDVTCNIKNGRCEQFCKNSADNKVVCSCTEGYRLAENQKSCEPAVPFPCGRVSVSQTSKLTR
chain 2: VVGGEDAKPGQFPWQVVLNGKVDAFCGGSIVNEKWIVTAAHCVETGVKITVVAGEHNIEETEHTEQKRNVIRIIPHHNYNAAINKYNHDIALLELDEPLVLNSYVTPICIADAEYTNIFLKFGSGYVSGWGRVFHKGRSALVLQYLRVPLVDRATCLASTKFTIYNNMFCAGFHEGGRDSCQGDSGGPHVTEVEGTSFLTGIISWGEECAMKGKYGIYTKVSAYVNWIKEKTKLT
K0.5-mut/K0.5-wt [1]: 16.9 | K0.5 [2]: > 999 nM | K0.5-mut/K0.5-wt [2]: > 51.7 | kcat (FX activation in the Xase complex) (Factor X (FX), P00742): 1.6 s⁻¹ | kcat/KM for FX activation (Xase assay with FVIIIa, PC/PS vesicles, Ca2+) (Factor X (FX), P00742): 2.5e+07 M⁻¹ s⁻¹ | % of WT (kcat/KM) (Factor X, P00742): 53% | kcat/KM (Factor X, P00742): 2.5e+07 M⁻¹ s⁻¹

B2: FIXa A103N/N105S/R318Y/R338E/R403E/E410N (mature FIX numbering) (protein)
chain 1: YNSGKLEEFVQGNLERECMEEKCSFEEAREVFENTERTTEFWKQYVDGDQCESNPCLNGGSCKDDINSYECWCPFGFEGKNCELDVTCNIKNGRCEQFCKNSNDSKVVCSCTEGYRLAENQKSCEPAVPFPCGRVSVSQTSKLTR
chain 2: VVGGEDAKPGQFPWQVVLNGKVDAFCGGSIVNEKWIVTAAHCVETGVKITVVAGEHNIEETEHTEQKRNVIRIIPHHNYNAAINKYNHDIALLELDEPLVLNSYVTPICIADKEYTNIFLKFGSGYVSGWGRVFHKGYSALVLQYLRVPLVDRATCLESTKFTIYNNMFCAGFHEGGRDSCQGDSGGPHVTEVEGTSFLTGIISWGEECAMKGKYGIYTKVSEYVNWIKNKTKLT
K0.5 [3]: 9.19 µM

B3: FIXa D203N/F205T/R318Y/E410N (mature FIX numbering) (protein)
chain 1: YNSGKLEEFVQGNLERECMEEKCSFEEAREVFENTERTTEFWKQYVDGDQCESNPCLNGGSCKDDINSYECWCPFGFEGKNCELDVTCNIKNGRCEQFCKNSADNKVVCSCTEGYRLAENQKSCEPAVPFPCGRVSVSQTSKLTR
chain 2: VVGGEDAKPGQFPWQVVLNGKVNATCGGSIVNEKWIVTAAHCVETGVKITVVAGEHNIEETEHTEQKRNVIRIIPHHNYNAAINKYNHDIALLELDEPLVLNSYVTPICIADKEYTNIFLKFGSGYVSGWGRVFHKGYSALVLQYLRVPLVDRATCLRSTKFTIYNNMFCAGFHEGGRDSCQGDSGGPHVTEVEGTSFLTGIISWGEECAMKGKYGIYTKVSRYVNWIKNKTKLT
K0.5 [3]: 1.28 µM

B4: FIXa A103N/N105S/Y155F/R318Y/R338E/R403E/E410N (mature FIX numbering) (protein)
chain 1: YNSGKLEEFVQGNLERECMEEKCSFEEAREVFENTERTTEFWKQYVDGDQCESNPCLNGGSCKDDINSYECWCPFGFEGKNCELDVTCNIKNGRCEQFCKNSNDSKVVCSCTEGYRLAENQKSCEPAVPFPCGRVSVSQTSKLTR
chain 2: VVGGEDAKPGQFPWQVVLNGKVDAFCGGSIVNEKWIVTAAHCVETGVKITVVAGEHNIEETEHTEQKRNVIRIIPHHNYNAAINKYNHDIALLELDEPLVLNSYVTPICIADKEYTNIFLKFGSGYVSGWGRVFHKGYSALVLQYLRVPLVDRATCLESTKFTIYNNMFCAGFHEGGRDSCQGDSGGPHVTEVEGTSFLTGIISWGEECAMKGKYGIYTKVSEYVNWIKNKTKLT
K0.5 [3]: > 10 µM

B5: FIXa-K293E/R338E/R403E (protein)
chain 1: YNSGKLEEFVQGNLERECMEEKCSFEEAREVFENTERTTEFWKQYVDGDQCESNPCLNGGSCKDDINSYECWCPFGFEGKNCELDVTCNIKNGRCEQFCKNSADNKVVCSCTEGYRLAENQKSCEPAVPFPCGRVSVSQTSKLTR
chain 2: VVGGEDAKPGQFPWQVVLNGKVDAFCGGSIVNEKWIVTAAHCVETGVKITVVAGEHNIEETEHTEQKRNVIRIIPHHNYNAAINKYNHDIALLELDEPLVLNSYVTPICIADEEYTNIFLKFGSGYVSGWGRVFHKGRSALVLQYLRVPLVDRATCLESTKFTIYNNMFCAGFHEGGRDSCQGDSGGPHVTEVEGTSFLTGIISWGEECAMKGKYGIYTKVSEYVNWIKEKTKLT
K0.5-mut/K0.5-wt [1]: 14.2 | K0.5 [2]: > 999 nM | K0.5-mut/K0.5-wt [2]: > 51.7 | kcat (FX activation in the Xase complex) (Factor X (FX), P00742): 0.8 s⁻¹ | kcat/KM for FX activation (Xase assay with FVIIIa, PC/PS vesicles, Ca2+) (Factor X (FX), P00742): 1.7e+07 M⁻¹ s⁻¹ | % of WT (kcat/KM) (Factor X, P00742): 36% | KM (Catalytic activity of FIXa variants) (Factor X, P00742): 0.05 µM | kcat/KM (Factor X, P00742): 1.7e+07 M⁻¹ s⁻¹

B6: FIXa D104N/K106S/R318Y/R338E/R403E/E410N (mature FIX numbering) (protein)
chain 1: YNSGKLEEFVQGNLERECMEEKCSFEEAREVFENTERTTEFWKQYVDGDQCESNPCLNGGSCKDDINSYECWCPFGFEGKNCELDVTCNIKNGRCEQFCKNSANNSVVCSCTEGYRLAENQKSCEPAVPFPCGRVSVSQTSKLTR
chain 2: VVGGEDAKPGQFPWQVVLNGKVDAFCGGSIVNEKWIVTAAHCVETGVKITVVAGEHNIEETEHTEQKRNVIRIIPHHNYNAAINKYNHDIALLELDEPLVLNSYVTPICIADKEYTNIFLKFGSGYVSGWGRVFHKGYSALVLQYLRVPLVDRATCLESTKFTIYNNMFCAGFHEGGRDSCQGDSGGPHVTEVEGTSFLTGIISWGEECAMKGKYGIYTKVSEYVNWIKNKTKLT
K0.5 [3]: > 10 µM

B7: FIXa Y155F/R318Y/R338E/R403E/E410N (mature FIX numbering) (protein)
chain 1: YNSGKLEEFVQGNLERECMEEKCSFEEAREVFENTERTTEFWKQYVDGDQCESNPCLNGGSCKDDINSYECWCPFGFEGKNCELDVTCNIKNGRCEQFCKNSADNKVVCSCTEGYRLAENQKSCEPAVPFPCGRVSVSQTSKLTR
chain 2: VVGGEDAKPGQFPWQVVLNGKVDAFCGGSIVNEKWIVTAAHCVETGVKITVVAGEHNIEETEHTEQKRNVIRIIPHHNYNAAINKYNHDIALLELDEPLVLNSYVTPICIADKEYTNIFLKFGSGYVSGWGRVFHKGYSALVLQYLRVPLVDRATCLESTKFTIYNNMFCAGFHEGGRDSCQGDSGGPHVTEVEGTSFLTGIISWGEECAMKGKYGIYTKVSEYVNWIKNKTKLT
K0.5 [3]: > 10 µM

B8: FIXa D104N/K106S/Y155F/R318Y/R338E/R403E/E410N (mature FIX numbering) (protein)
chain 1: YNSGKLEEFVQGNLERECMEEKCSFEEAREVFENTERTTEFWKQYVDGDQCESNPCLNGGSCKDDINSYECWCPFGFEGKNCELDVTCNIKNGRCEQFCKNSANNSVVCSCTEGYRLAENQKSCEPAVPFPCGRVSVSQTSKLTR
chain 2: VVGGEDAKPGQFPWQVVLNGKVDAFCGGSIVNEKWIVTAAHCVETGVKITVVAGEHNIEETEHTEQKRNVIRIIPHHNYNAAINKYNHDIALLELDEPLVLNSYVTPICIADKEYTNIFLKFGSGYVSGWGRVFHKGYSALVLQYLRVPLVDRATCLESTKFTIYNNMFCAGFHEGGRDSCQGDSGGPHVTEVEGTSFLTGIISWGEECAMKGKYGIYTKVSEYVNWIKNKTKLT
K0.5 [3]: > 10 µM
